# Laboratory results: US20250195679A1, “ANTIBODY-DRUG CONJUGATE AND USE THEREOF” (SHANGHAI HUAOTA BIOPHARMACEUTICAL CO., LTD., priority 2022, published 2025)
# T1: human CD73 (CHOK1-huCD73-3F4 cells) (Homo sapiens, UniProt P21589)
# T1 construct: host or cells: CHOK1-huCD73-3F4 (CHO-K1 clone)
# T1 sequence (P21589 27-549): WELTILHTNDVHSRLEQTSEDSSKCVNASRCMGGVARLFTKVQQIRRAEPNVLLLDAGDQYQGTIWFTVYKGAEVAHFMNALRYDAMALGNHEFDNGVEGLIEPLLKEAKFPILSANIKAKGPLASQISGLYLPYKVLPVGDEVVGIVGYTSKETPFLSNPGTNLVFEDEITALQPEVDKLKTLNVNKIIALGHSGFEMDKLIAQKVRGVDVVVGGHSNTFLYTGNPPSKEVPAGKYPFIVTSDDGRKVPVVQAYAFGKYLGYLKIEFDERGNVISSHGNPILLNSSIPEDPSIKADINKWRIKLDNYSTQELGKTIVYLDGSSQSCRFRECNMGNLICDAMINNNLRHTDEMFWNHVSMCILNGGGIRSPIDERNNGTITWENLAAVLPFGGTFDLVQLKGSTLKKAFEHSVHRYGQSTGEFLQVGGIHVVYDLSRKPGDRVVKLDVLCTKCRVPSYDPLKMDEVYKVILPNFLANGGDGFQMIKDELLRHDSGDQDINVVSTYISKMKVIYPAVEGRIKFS
# B1: Antibody-drug conjugate 1: 900698 antibody cysteine-conjugated to SN-38 via Mc-VC-PAB-DMEDA-PEG linker, DAR about 7.8 (conjugate)
# VH: QVQLVESGGGLVKPGGSLRLSCAASGFTFSKYAMSWIRQAPGKGLEWVAEISSGGGYINYADSVKGRFTISRDNAKNSLYLQMNSLRAEDTAVYYCARAIYYYGSSYNYYAMDYWGQGTTVTVSS
# VL: DIQMTQSPSSLSASVGDRVTITCRASQDVGTAEAWYQQKPGKAPKLLIYWASTRHTGVPSRFSGSGSGTDFTLTISSLQPEDFATYYCQQYSSYPLTFGQGTKLEIK
# B2: 900698: anti-CD73 antibody, VH SEQ ID NO: 35, VL SEQ ID NO: 34 (antibody, V domains shown)
# VH: B1 VH
# VL: B1 VL
# modifications: 900696, 900698 (VH); 900695, 900698 (VL)
# B3: Antibody-drug conjugate 2: 900698 antibody cysteine-conjugated to SN-38 via MP2-VC-PAB-DMEDA-PEG linker, DAR about 7.8 (conjugate)
# VH: B1 VH
# VL: B1 VL
# Columns and labels:
# Monkey CD73 = assay: Biacore binding kinetics with monkey CD73 protein; settings: Monkey CD73, Biacore T200, protein A chip, 25° C., 1:1 binding model
# Method: The binding kinetics of the antibody-drug conjugate 1 and the antibody-drug conjugate 2 prepared in Example 1 and the 900698 naked antibody with a human CD73 protein (manufacturer: ACRO Biosystems, Cat. No. CD3-H52H7) and a monkey CD73 protein (manufacturer: Novoprotein, Cat. No. CI21) were assayed using Biacore (GE, model: T200), with an assay buffer of HBS-EP+ (pH 7.4) and a protein A chip (manufacturer: GE, Cat. No. 29-1275-56).
# The temperature for the sample compartment and the flow path was set to 25° C. The protein A chip captured each antigen-binding protein as a ligand, fixing about 100 RU. The human CD73 protein was diluted with the assay buffer to a series of concentrations of 50 nM, 25 nM, 12.5 nM, 6.25 nM, 3.12 nM, and 1.57 nM, serving as analytes, and the assay buffer was used as a 0 concentration control. At a flow rate of 30 μL/min, association was conducted for 120 s, and dissociation was conducted for 600 s. Glycine (10 mM, pH 1.5) was used for regeneration at a flow rate of 50 μL/min for 60 s in a multi-cycle kinetic assay. A 1:1 binding model was used, and the Fit Local mode was selected to determine the association rate constant (ka), dissociation rate constant (kd), and equilibrium dissociation constant (KD).
# MDA-MB-231 cells = assay: Killing of tumor cells highly expressing CD73 (CellTiter-Glo); type: cell-based, human; settings: cells highly expressing CD73, 5 days, FIG. 6
# Method: (§1) The specific procedures were as follows: MDA-MB-231 cells and MCF-7 cells were prepared into cell suspensions at densities of 8E4 cells/mL and 7.5E5 cells/mL, respectively, which were then each added onto a 96-well cell culture plate at 100 μL per well. The 96-well cell culture plate was sealed with liquid and then incubated in an incubator at 37° C. with 5% CO2 for 6 h. With an assay medium, the antibody-drug conjugate 1, the antibody-drug conjugate 2, and the 900698 naked antibody were each diluted to 400 μg/mL and then subjected to a 2-fold dilution to give 8 concentrations, resulting in a total of 9 concentrations. The same dilution procedure was performed for the Buffer solution as for the antibody-drug conjugate 1. The gradient dilution solutions were each added at 50 μL/well to the 96-well cell culture plate after the above incubation was completed. Each sample well was then supplemented with 50 μL of the corresponding assay medium. The 96-well cell culture plate was further incubated in an incubator at 37° C. with 5% CO2 for another 5 days. After the incubation was completed, the 96-well plate was removed from the incubator, 100 μL of culture medium was aspirated from each well, and then the equilibrated Celltiter-Glo Luminescent Cell Viability Assay reagent (Promega, #G7573) was added at 100 μL/well. After shaking for reaction in the dark at room temperature for 10 min, 100 μL of culture medium was taken from each well, transferred to the corresponding well of a 96-well black plate, and then subjected to full-wavelength detection using a microplate reader.
# MCF-7 cells = assay: Killing of tumor cells not expressing CD73 (CellTiter-Glo); type: cell-based; settings: cells not expressing CD73, 5 days, FIG. 5
# Method: as §1
# [1] = target: T1, human CD73 (CHOK1-huCD73-3F4 cells); assay: Cell binding activity to human CD73 antigen expressed on membrane (flow cytometry); type: cell-based; settings: FACS, FIG. 2
# Method: The binding activity of the antibody-drug conjugate 1 and the antibody-drug conjugate 2 prepared in Example 1 and the 900698 naked antibody to cells expressing human CD73 (CHOK1-huCD73-3F4, Huabo Biopharm) was assayed.
# All antigen-binding proteins were diluted to 30 μg/mL with a solution of 1% BSA in PBS (1% BSA/PBS), followed by a 3-fold dilution across 10 gradients. The diluted proteins were each added at 20 μL per well to a 96-well U-bottom plate, with a negative control (adding only 1% BSA/PBS) set up simultaneously. A suspension of cells expressing human CD73 (CHOK1-huCD73-3F4, Huabo Biopharm) in the logarithmic growth phase was taken and centrifuged (1000 rpm×5 min), and then the culture medium was discarded. The cells were resuspended in 1% BSA/PBS until the viable cell density was 1×10^6 cells/mL, then added at 20 μL (2×10^4 cells) per well to the 96-well U-bottom plate containing the anti-CD73 antigen-binding proteins, and incubated at room temperature for reaction for 30 min. The reacted cells in the 96-well U-bottom plate were resuspended in 1% BSA/PBS and centrifuged (300 g×3 min), and then the supernatant was discarded. This washing process was performed once. Then, a 1:200 dilution of PE-goat anti-human-Fc (Jackson ImmunoResearch, #109-115-098) was added, and the cells were incubated in the dark at room temperature for reaction for 15 min. The reacted cells in the 96-well U-bottom plate were further resuspended in 1% BSA/PBS and centrifuged (300 g×3 min), and then the supernatant was discarded. This washing process was performed 3 times. Finally, the cells were resuspended in 100 μL of 1% BSA/PBS per well, and the fluorescence intensity in the PE channel was detected using a flow cytometer (BD, #Canto II).
# The results for the binding activity of the antibody-drug conjugate 1, the antibody-drug conjugate 2, and the 900698 naked antibody are shown in FIG. 2 (represented as 1-3 in FIG. 2, respectively).
Molecule,ka (Monkey CD73),kd (Monkey CD73),killing effect on MDA-MB-231 cells (MDA-MB-231 cells),killing effect on MCF-7 cells (MCF-7 cells),binding activity (affinity) for cells expressing human CD73 [1]
B1,55000 M⁻¹ s⁻¹,1.92e-06 s⁻¹,excellent killing effects,no killing effect,good affinity
B2,148000 M⁻¹ s⁻¹,1.8e-05 s⁻¹,no killing effect,no killing effect,good affinity
B3,454000 M⁻¹ s⁻¹,0.000114 s⁻¹,excellent killing effects,no killing effect,good affinity
